From the supplement of paper PMC7125110
± gives the standard error. Variants at the floor of the assay were thinned out.

B1: glmS ribozyme (parent)
chain: AUAAAAGCGCCAGAACUACAGAAAUGUAGUUGACGAGGAGGAGGUUUAUCGAAUUUUCGGCGGAUGCCUCCAAA

Variants of: B1
Assay: self-cleavage kobs at 2500 uM GlcN6P; higher = faster cleavage; RNA array
Conditions: with glucosamine-6-phosphate
In short: (§1)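 Using a hybridised Cy3 probe at 37 °C, barcoded ribozyme variants transcribed in situ by E. coli RNA polymerase on sequenced MiSeq chips were monitored across tiles imaged over ~14 h. The flow contained glucosamine-6-phosphate from 40 μM to 10 mM in HEPES/KCl/Mg(OAc)2 buffer. Signals were normalised to baseline and to non-cleaving reference variants before per-tile medians were fit to one- or two-exponential decays to yield kobs. Weighted Michaelis–Menten fits across concentrations gave kcat and KM.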
With AUAAAAGCACCAGGACUACAGAAAUGUAGUUGCCGAGUAGGAGGUUUAUCGAAUUUACGGCGGAUGCCUCCAAA [G9A A14G A33C G38U U57A] the “self-cleavage kobs at 2500 uM GlcN6P” value was < 1e-05 s⁻¹. With AUAAAAGCGCCAGAAAUACAGAAAUGUAGUUGACGAGGAGGAGGUUUAUCGAAUUUUCGGCGCAUGGCUCCAAA [C16A G63C C67G] the “self-cleavage kobs at 2500 uM GlcN6P” value was < 1e-05 s⁻¹. With AUAAAAGCGCCAGAACUACAGAAAUGUAGUUGACGUGGAGGAGAUUUCUCGAAUUUCCGGCGGAUGCCUCCAAA [A36U G44A A48C U57C] the “self-cleavage kobs at 2500 uM GlcN6P” value was < 1e-05 s⁻¹. AUAAAAGCGCCAGCAUUACAGAAAUGUAGUUGACGAGGACGAGAUUUAUCGAAUUUUCGACGGAUGCCUCCAAA [A14C C16U G40C G44A G60A] was tested, and the “self-cleavage kobs at 2500 uM GlcN6P” value was < 1e-05 s⁻¹. AUAAAAACGCCAGAACUACAGAAAUGUAGUUGACGAGGCGGAGGUUUAUCGAAUUUUCGGCGAAUGCCUCCAAA [G7A A39C G63A] was tested, and the “self-cleavage kobs at 2500 uM GlcN6P” value was < 1e-05 s⁻¹. For AUAAAAGCGCCAGAACUACAGAAAUGUAGUUGACGAGAAGGAGGUUUAUCGAACUUUCGGCGUAUGCCUCCAAA [G38A U54C G63U], the “self-cleavage kobs at 2500 uM GlcN6P” value was < 1e-05 s⁻¹. For AUAAAAGCGCCAGUACUACAGAAAUGUAGUUGACGAGCAGGUGGUUUAUCGAAUUUUCGGCGGAUGCCUCCAAA [A14U G38C A42U], the “self-cleavage kobs at 2500 uM GlcN6P” value was < 1e-05 s⁻¹. With AUAAAAGCGGAAGAACUACAGAAAUGUAGCUGACGCUGAGGAGGUUUAUCGAAUUUUCGGCGGAUGCCUAUAAA [C10G C11A U30C A36C G37U C70A C71U] the “self-cleavage kobs at 2500 uM GlcN6P” value was 8.35e-05 ± 3.8e-05 s⁻¹. With AUAAAAGCGGCAGAACUACAGAAAUGUAGUUGACUAGAAGUAGGUUUAUCGAAUUUUCGGCGGAUGCCUCCAAA [C10G G35U G38A G41U] the “self-cleavage kobs at 2500 uM GlcN6P” value was < 1e-05 s⁻¹. AUAAAAGCGCCAGACCUACAGAAAUGUAGCUGACGAGGAGGAGGUUUAUCGAAUUUUCGGCGGAUGCGUCCAAA [A15C U30C C68G] was tested, and the “self-cleavage kobs at 2500 uM GlcN6P” value was 0.000192 ± 6.4e-05 s⁻¹. With AUAAAAGCGCCAGAACUACAGAAAUGUAGUUAACGAGGAGGAGGUUUAUCGAAUUUUCGACGGACGCCUCCAAA [G32A G60A U65C] the “self-cleavage kobs at 2500 uM GlcN6P” value was < 1e-05 s⁻¹. For AUAAAAGCGCCAGAACUACAGAAAUGUAGUUGACGAGGAGGAGAUUUACCGAAUUUUCGGCGGAUGCCUCCAAA [G44A U49C], the “self-cleavage kobs at 2500 uM GlcN6P” value was < 1e-05 s⁻¹. In the case of AUAAAAGCGCCAGAACUACAGAAAUGUAGUUGACGAGGAGGACGUUUAUCGAAUUUUCGGCGGAUGACGCCAAA [G43C C67A U69G], the “self-cleavage kobs at 2500 uM GlcN6P” value is reported as 0.000151 ± 6e-05 s⁻¹. For AUAAAAGCGCCAGAGCUACAGAAAUGUAGUUGACGAGGAGGAGGUUUAUCGAAUUUUCCUCGGAUGCCUCCAAA [A15G G59C G60U], the “self-cleavage kobs at 2500 uM GlcN6P” value was < 1e-05 s⁻¹. In the case of AUAAAAGCGCCCGAACUACAGAAAUGUAGUUGACGUGGAGGAGGUGUAUCGAAUUUUCGGCGGAUGCCUCCAAA [A12C A36U U46G], the “self-cleavage kobs at 2500 uM GlcN6P” value is reported as < 1e-05 s⁻¹. In the case of AUAAAAGCGCCAGAACUACAGAAAUGUAGUUGACGAGGCGGAGGUUUAUCGAAUUUUCGCCGGAUGGCUCCAAA [A39C G60C C67G], the “self-cleavage kobs at 2500 uM GlcN6P” value is reported as < 1e-05 s⁻¹. AUAAAAGCGCCAGAAGUACAGAAAUGUAGUUGACGAGGAGGAGGUUUAUCGAACUUUCGGCGGAUGCCUUCAAA [C16G U54C C70U] was tested, and the “self-cleavage kobs at 2500 uM GlcN6P” value was 0.00152 ± 0.00038 s⁻¹. For AUAAAAGUGCCAGAUCUACAGAAAUGUAGUUUACGAGGAGGAGGUCUAUCGAAUUUUCGGCGGAUGCCUCCAAA [C8U A15U G32U U46C], the “self-cleavage kobs at 2500 uM GlcN6P” value was < 1e-05 s⁻¹. With AUAAAACCGCCAGAACUACAGAAAUGUAGUUGACGAGGAGGAGGUUUAUCUAAUUUUCAGCGGAUGCCUCCAAA [G7C G51U G59A] the “self-cleavage kobs at 2500 uM GlcN6P” value was < 1e-05 s⁻¹. With AUAAAAGCGCCAGAACUACAGAAAUGUAGUUGACGAGGACGAUGUUUAUCGAAUUAUCGGCGGAUGCCUCCAAA [G40C G43U U56A] the “self-cleavage kobs at 2500 uM GlcN6P” value was < 1e-05 s⁻¹. In the case of AUAAAAGCGCCAGAACUACAGAAAUGUAGUUGACGAGGAGGAGGUUAAUCGAAUUUCCGGCGGAUGCCUCCAAA [U47A U57C], the “self-cleavage kobs at 2500 uM GlcN6P” value is reported as 0.000104 ± 2.6e-05 s⁻¹. AUAAAAGCGCCGGAACUACAGAAAUGUAGUAGACGAGCAUAAGGUUUAUCGAAUUUUAGGCGGAUGCCUCCAAA [A12G U31A G38C G40U G41A C58A] was tested, and the “self-cleavage kobs at 2500 uM GlcN6P” value was < 1e-05 s⁻¹. For AUAAAAGCGCCAGAACUACAGAAAUGUAGUUUACGAGGAGGAGGUUUAUCGAAUUUUCGGCGCAUGCCUCGAAA [G32U G63C C71G], the “self-cleavage kobs at 2500 uM GlcN6P” value was 6.45e-05 ± 3.2e-05 s⁻¹. AUAAAAGCGCCAGAACUACAGAAAUGUAGUUGGCGAGGAGGAGGUUUAUCGAAUUUUCGGCGGAUGCCGCCAAA [A33G U69G] was tested, and the “self-cleavage kobs at 2500 uM GlcN6P” value was 5.67e-05 ± 1.7e-05 s⁻¹. With AUAAAAGCGCCAGCACUACAUAAAUGUAGUUGACGAGGAGGAGGUUUAUCGAAUUUUCGGCGGAUGCCUCCAAA [A14C G21U] the “self-cleavage kobs at 2500 uM GlcN6P” value was 0.00132 ± 0.00031 s⁻¹. AUAAAAGAGCCAGAACUACAGAAAUGUAGCUGACGAGGAGGAGGUUUAUCGAAUUUUCGGCAGAUGCCUCCAAA [C8A U30C G62A] was tested, and the “self-cleavage kobs at 2500 uM GlcN6P” value was < 1e-05 s⁻¹. For AUAAAAGCGCCAGAACUACAGAAAUGUAGUUGACGAGGACGAGGUUUAUCGAAGUUUCGGCGGAUACCUCCAAA [G40C U54G G66A], the “self-cleavage kobs at 2500 uM GlcN6P” value was 0.00142 ± 0.00027 s⁻¹. With AUAAAAGCGCCAGAUCUACAGAAAUGUAGUUGACCAGUAGGAGGUUGAUCGAAUUUUCGGCGGAUGCCGCCAAA [A15U G35C G38U U47G U69G] the “self-cleavage kobs at 2500 uM GlcN6P” value was < 1e-05 s⁻¹. In the case of AUAAAAGCGCCAGAACUACAGAAAUGUAGUUGAUAAGUAGGAAGUUUAUCGAAUUUUCGGCGGAUGCCUCCAAA [C34U G35A G38U G43A], the “self-cleavage kobs at 2500 uM GlcN6P” value is reported as < 1e-05 s⁻¹. With AUAAAAGCGCCAGAACUACAGAAAUGUAGUUGACGAGGAGGAGGUUUGUCGAAUUAUCGGCGGAUGCCGCCAAA [A48G U56A U69G] the “self-cleavage kobs at 2500 uM GlcN6P” value was 7.7e-05 ± 2.2e-05 s⁻¹. In the case of AUAAAAGCGCCAGAACUACAGAAAUGUAGUUGGCGCGGAGGAGCAUUAUUGAAUUUUCGGCGGAUGCCUCAAAA [A33G A36C G44C U45A C50U C71A], the “self-cleavage kobs at 2500 uM GlcN6P” value is reported as < 1e-05 s⁻¹. In the case of AUAAAAGCGCCGGAACUACAGAAAUGUAGCUGACGAGGAGGAGGUUUAUCGAAUUUUAGGCGGAUGCCUCCAAA [A12G U30C C58A], the “self-cleavage kobs at 2500 uM GlcN6P” value is reported as 0.000105 ± 3.1e-05 s⁻¹. AUAAAACCGCCAGGACUACAGAAAUGUAGUUGACGAGGAGGAAGUACAUCGAAUUUUCGUCGGAUGCCUCCAAA [G7C A14G G43A U46A U47C G60U] was tested, and the “self-cleavage kobs at 2500 uM GlcN6P” value was < 1e-05 s⁻¹. For AUAAAAGAGCCAGAACUACAGAAAUGUAUUUUACGAGGAGGAGGUUUAUCGAAUUUUCGGCGGAUGCCUCCAAA [C8A G29U G32U], the “self-cleavage kobs at 2500 uM GlcN6P” value was < 1e-05 s⁻¹.

Variants of: B1
Assay: self-cleavage kobs at 10000 uM GlcN6P; higher = faster cleavage; RNA array
Conditions: with glucosamine-6-phosphate
In short: as §1
With AUAAAAGCGCCAGUACUACAGAAAUGUAGUUGACGAGCAGGUGGUUUAUCGAAUUUUCGGCGGAUGCCUCCAAA [A14U G38C A42U] the “self-cleavage kobs at 10000 uM GlcN6P” value was < 1e-05 s⁻¹. In the case of AUAAAAGCGCCAGAACUACAGAAAUGUAGUUGACGAGGAGGAGGUUAAUCGAAUUUCCGGCGGAUGCCUCCAAA [U47A U57C], the “self-cleavage kobs at 10000 uM GlcN6P” value is reported as 0.000159 ± 2.5e-05 s⁻¹. AUAAAAGCGCCAGAUCUACAGAAAUGUAGUUGACCAGUAGGAGGUUGAUCGAAUUUUCGGCGGAUGCCGCCAAA [A15U G35C G38U U47G U69G] was tested, and the “self-cleavage kobs at 10000 uM GlcN6P” value was 0.000954 ± 0.0003 s⁻¹.
